{"source": "patent US20250243261A1", "about": "(CZ BIOHUB SF, published 2025)", "binders": {"B1": {"name": "mAb114 VH M31S Fab (Fab, V domains shown)", "VH": "EVQLVESGGGLIQPGGSLRLSCAASGFALRSYDMHWVRQTIDKRLEWVSAVGPSGDTYYADSVKGRFAVSRENAKNSLSLQMNSLTAGDTAIYYCVRSDRGVAGLFDSWGQGILVTVSS", "VL": "DIQMTQSPSSLSASVGDRITITCRASQAFDNYVAWYQQRPGKVPKLLISAASALHAGVPSRFSGSGSGTHFTLTISSLQPEDVATYYCQNYNSAPLTFGGGTKVEIK"}, "B2": {"name": "mAb114 VH A68T-I113T / VL V43A Fab (Fab, V domains shown)", "VH": "B1 VH with S31M, A68T, I113T", "VL": "B1 VL with V43A"}, "B3": {"name": "mAb114 VH I113T Fab (Fab, V domains shown)", "VH": "B1 VH with S31M, I113T", "VL": "B1 VL"}, "B4": {"name": "mAb114 VH S79Y Fab (Fab, V domains shown)", "VH": "B1 VH with S31M, S79Y", "VL": "B1 VL"}, "B5": {"name": "mAb114 VL S49Y Fab (Fab, V domains shown)", "VH": "B1 VH with S31M", "VL": "B1 VL with S49Y"}, "B6": {"name": "mAb114 VH A68T-E72D-S79Y-I113T / VL V43A Fab (Fab, V domains shown)", "VH": "B1 VH with S31M, A68T, E72D, S79Y, I113T", "VL": "B1 VL with V43A"}, "B7": {"name": "mAb114 VH D42G Fab (Fab, V domains shown)", "VH": "B1 VH with S31M, D42G", "VL": "B1 VL"}, "B8": {"name": "mAb114 VL I19V Fab (Fab, V domains shown)", "VH": "B1 VH with S31M", "VL": "B1 VL with I19V"}, "B9": {"name": "mAb114 VH I41P-D42G-A68T-S79Y-I113T Fab (Fab, V domains shown)", "VH": "B1 VH with S31M, I41P, D42G, A68T, S79Y, I113T", "VL": "B1 VL"}, "B10": {"name": "mAb114 VH E72D Fab (Fab, V domains shown)", "VH": "B1 VH with S31M, E72D", "VL": "B1 VL"}, "B11": {"name": "mAb114 VH A68T Fab (Fab, V domains shown)", "VH": "B1 VH with S31M, A68T", "VL": "B1 VL"}, "B12": {"name": "mAb114 VH D42G-A68T-S79Y Fab (Fab, V domains shown)", "VH": "B1 VH with S31M, D42G, A68T, S79Y", "VL": "B1 VL"}, "B13": {"name": "mAb114 VL N90Q Fab (Fab, V domains shown)", "VH": "B1 VH with S31M", "VL": "B1 VL with N90Q"}, "B14": {"name": "mAb114 VH I41P-D42G-A68T-S79Y-I113T / VL V43A Fab (Fab, V domains shown)", "VH": "B1 VH with S31M, I41P, D42G, A68T, S79Y, I113T", "VL": "B1 VL with V43A"}, "B15": {"name": "mAb114 VL V43A Fab (Fab, V domains shown)", "VH": "B1 VH with S31M", "VL": "B1 VL with V43A"}, "B16": {"name": "mAb114 VL H70D Fab (Fab, V domains shown)", "VH": "B1 VH with S31M", "VL": "B1 VL with H70D"}, "B17": {"name": "mAb114 VL F29I Fab (Fab, V domains shown)", "VH": "B1 VH with S31M", "VL": "B1 VL with F29I"}, "B18": {"name": "mAb114 VH I41P Fab (Fab, V domains shown)", "VH": "B1 VH with S31M, I41P", "VL": "B1 VL"}, "B19": {"name": "mAb114 UCA VH T41P IgG (antibody, V domains shown)", "VH": "EVQLVESGGGLVQPGGSLRLSCAASGFTFSSYDMHWVRQAPGKGLEWVSAIGTAGDTYYPGSVKGRFTISRENAKNSLYLQMNSLRAGDTAVYYCVRSDRGVAGLFDSWGQGTLVTVSS", "VL": "DIQMTQSPSSLSASVGDRVTITCRASQGISNYLAWYQQKPGKVPKLLIYAASTLQSGVPSRFSGSGSGTDFTLTISSLQPEDVATYYCQKYNSAPLTFGGGTKVEIK"}, "B20": {"name": "mAb114 UCA VL K90Q IgG (antibody, V domains shown)", "VH": "B19 VH with P41T", "VL": "B19 VL with K90Q"}, "B21": {"name": "mAb114 UCA VH A54G IgG (antibody, V domains shown)", "VH": "B19 VH with P41T, A54G", "VL": "B19 VL"}, "B22": {"name": "mAb114 UCA VH P60A-G61D IgG (antibody, V domains shown)", "VH": "B19 VH with P41T, P60A, G61D", "VL": "B19 VL"}, "B23": {"name": "mAb114 UCA VH P60A IgG (antibody, V domains shown)", "VH": "B19 VH with P41T, P60A", "VL": "B19 VL"}, "B24": {"name": "mAb114 UCA VH E72D IgG (antibody, V domains shown)", "VH": "B19 VH with P41T, E72D", "VL": "B19 VL"}, "B25": {"name": "mAb114 UCA VH G88E IgG (antibody, V domains shown)", "VH": "B19 VH with P41T, G88E", "VL": "B19 VL"}, "B26": {"name": "mAb114 UCA VH P60A-G61D-G88E-V96A / VL V43A IgG (antibody, V domains shown)", "VH": "B19 VH with P41T, P60A, G61D, G88E, V96A", "VL": "B19 VL with V43A"}, "B27": {"name": "mAb114 UCA VH G61D IgG (antibody, V domains shown)", "VH": "B19 VH with P41T, G61D", "VL": "B19 VL"}, "B28": {"name": "mAb114 UCA VH G88E / VL V43A IgG (antibody, V domains shown)", "VH": "B19 VH with P41T, G88E", "VL": "B19 VL with V43A"}, "B29": {"name": "mAb114 UCA VH V96A / VL V43A IgG (antibody, V domains shown)", "VH": "B19 VH with P41T, V96A", "VL": "B19 VL with V43A"}, "B30": {"name": "mAb114 UCA VH V96A IgG (antibody, V domains shown)", "VH": "B19 VH with P41T, V96A", "VL": "B19 VL"}, "B31": {"name": "mAb114 UCA VL V43A IgG (antibody, V domains shown)", "VH": "B19 VH with P41T", "VL": "B19 VL with V43A"}, "B32": {"name": "mAb114 UCA VH T41P-P60A-G61D-E72D-G88E-V96A IgG (antibody, V domains shown)", "VH": "B19 VH with P60A, G61D, E72D, G88E, V96A", "VL": "B19 VL"}, "B33": {"name": "mAb114 UCA VH P60A-G61D / VL V43A Fab (Fab, V domains shown)", "VH": "B19 VH with P41T, P60A, G61D", "VL": "B19 VL with V43A"}}, "note": "Substitutions are numbered along the chain they refer to. In names and notes the source's numbering stands.", "data": [{"molecular_target": "T1, Ebola GP ectodomain (Mayinga, Zaire, 1976) with the mucin-like domain deleted (Zaire ebolavirus (Mayinga, 1976), UniProt Q05320 33-650)", "units": {"Kd": "nM"}, "values": [{"binder": "B1", "Kd": 0.1}, {"binder": "B2", "Kd": 0.17}, {"binder": "B3", "Kd": 0.07}, {"binder": "B4", "Kd": 0.1}, {"binder": "B5", "Kd": 0.6}, {"binder": "B6", "Kd": 0.076}, {"binder": "B7", "Kd": 0.2}, {"binder": "B8", "Kd": 0.2}, {"binder": "B9", "Kd": 0.19}, {"binder": "B10", "Kd": 0.1}, {"binder": "B11", "Kd": 0.1}, {"binder": "B12", "Kd": 0.19}, {"binder": "B13", "Kd": 4}, {"binder": "B14", "Kd": 0.069}, {"binder": "B15", "Kd": 0.07}, {"binder": "B16", "Kd": 0.3}, {"binder": "B17", "Kd": 0.5}, {"binder": "B18", "Kd": 0.3}]}, {"molecular_target": "T1, Ebola GP ectodomain (Mayinga, Zaire, …)", "remark": "another data set of the same source", "units": {"Kd": "nM"}, "values": [{"binder": "B19", "Kd": 100}, {"binder": "B20", "Kd": 620}, {"binder": "B21", "Kd": 80000}, {"binder": "B22", "Kd": 120}, {"binder": "B23", "Kd": 40000}, {"binder": "B24", "Kd": 200}, {"binder": "B25", "Kd": 150}, {"binder": "B26", "Kd": 13}, {"binder": "B27", "Kd": 100}, {"binder": "B28", "Kd": 13}, {"binder": "B29", "Kd": 22}, {"binder": "B30", "Kd": 110}, {"binder": "B31", "Kd": 60}, {"binder": "B32", "Kd": 33}, {"binder": "B33", "Kd": 480}]}]}
